Source: the supplement of paper PMC9170038

Test system: MS2 coat protein
Experiment: apparent KD of MS2 coat protein; higher = weaker reporter binding
Conditions: Eterna round: R107
In short: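 Binding of SNAP-549-labelled MS2 coat protein was measured on designed RNA switches transcribed on-chip from Illumina sequencing clusters. The protein rose in twofold steps from 0.7 or 1.5 nM to 3 µM, with 0.8–1.5 h per step early on and 10–20 min per step later, in 100 mM Tris-HCl pH 7.5, 80 mM KCl, 4 mM MgCl2, without or with constant ligand. Each design's apparent KD is the median of fits to its normalised cluster binding curves.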

[1] = input ligand: theophylline 20 uM
[2] = input ligand: tryptophan 2.4 mM
[3] = input ligand: theophylline 2 mM

UCUUACUUGGUAGAUACCAGCGUGUUAUCUUUCUUUUGACAUGAGGAUCACCCAUGUAUAUGCCCUUGGCAGCUGCAUAGUGUGU [#02 Same State - Theophylline B]
apparent KD of MS2 coat protein (input ligand: arginine 13.2 mM): 26.9 nM
apparent KD of MS2 coat protein [1]: 41.7 nM
apparent KD of MS2 coat protein [2]: 30.1 nM

UGGUACAUGAGGAUCACCCAUGUUCCAGAUACCAGUGUCCCGCUGCACCCUUGGCAGCUGGUGGUACAUGAGGAUCACCCAUGUG [Exclusion Theophylline A GF11]
apparent KD of MS2 coat protein (input ligand: arginine 13.2 mM): 24.3 nM
apparent KD of MS2 coat protein (input ligand: none): 34.1 nM
apparent KD of MS2 coat protein [1]: 42.7 nM
apparent KD of MS2 coat protein [3]: 56.4 nM
apparent KD of MS2 coat protein [2]: 39 nM

UUACAUGAGGAUCACCCAUGUCAUACAGAAGGAGCGUCACAUAAGACAGGUAGGUCGCUGUUAUUUAAUACUAUUAUAUCCUCUA [JR_Nu_ExcArginiA_Sub027]
apparent KD of MS2 coat protein (input ligand: arginine 13.2 mM): 26.9 nM
apparent KD of MS2 coat protein (input ligand: none): 33.7 nM
apparent KD of MS2 coat protein [1]: 44.9 nM
apparent KD of MS2 coat protein [3]: 35.2 nM
apparent KD of MS2 coat protein [2]: 32.8 nM

AAAUAAAUACAUGAGGAUCACCCAUGUGAAGGAGCGCCCGUUAGGGCAGGUAGGUCGCACAUGAACUCCAAAGUGCAAAAGCACA [ArgEX 17 #OpenEnded]
apparent KD of MS2 coat protein (input ligand: arginine 13.2 mM): 35.7 nM
apparent KD of MS2 coat protein (input ligand: none): 21.5 nM
apparent KD of MS2 coat protein [1]: 29.7 nM
apparent KD of MS2 coat protein [3]: 27.4 nM
apparent KD of MS2 coat protein [2]: 25.4 nM

GUGGACAUGAGGAUCACCCAUGUAAGUCGGCGAGGACCGGUACGGCCGCCACUCGUGUUCUGUCUCAGCUCAAACGUAGCCGGAA [theeternabot_sameState_MS2_Trp_A_13]
apparent KD of MS2 coat protein (input ligand: arginine 13.2 mM): 34.2 nM
apparent KD of MS2 coat protein [1]: 51.8 nM
apparent KD of MS2 coat protein [3]: 39.2 nM

AAGCGGGCGACGGCCGCCACUUGCCUGUAAUUAGAGAAGGCACAUGAGGAUCACCCAUGUCCCGCAAGGACCGGGUUGCCUCACU [Ditiraorce]
apparent KD of MS2 coat protein (input ligand: arginine 13.2 mM): 93.6 nM
apparent KD of MS2 coat protein [1]: 484 nM
apparent KD of MS2 coat protein [3]: 580 nM

GAAGACAUGAGGAUCACCCAUGUUACACACCGAGGACCGGUACGGCCGCCACUCGUAGGCCCUCGGCUCACCUGAGAUCCGCAUC [theeternabot_sameState_MS2_Trp_A_11]
apparent KD of MS2 coat protein (input ligand: arginine 13.2 mM): 17.5 nM
apparent KD of MS2 coat protein [1]: 31.8 nM
apparent KD of MS2 coat protein [3]: 31.9 nM

CAUAUAUAUAGAAGGAGCGUCGAAAAUGGGUAAACAUGAGGAUCACCCAUGUAAAGGGAACGACAGGUAGGUCGCUAUAUAUAUG [AstromonsSSArgB#3]
apparent KD of MS2 coat protein (input ligand: arginine 13.2 mM): 99.1 nM
apparent KD of MS2 coat protein (input ligand: none): 161 nM
apparent KD of MS2 coat protein [1]: 187 nM
apparent KD of MS2 coat protein [3]: 208 nM
apparent KD of MS2 coat protein [2]: 175 nM

GUGGAGACCUCGGCCGCCACUCUCCAUGAGGAUCUCCCAUGUAACAUGAGGAUCACCCAUGUGCUGAGGACCGGGAGGUCCUGAA [Same State Tryptophan B GF 19]
apparent KD of MS2 coat protein (input ligand: arginine 13.2 mM): 15.7 nM
apparent KD of MS2 coat protein (input ligand: none): 9.47 nM
apparent KD of MS2 coat protein [1]: 13.4 nM
apparent KD of MS2 coat protein [3]: 11 nM
apparent KD of MS2 coat protein [2]: 9.55 nM

AUGUAGCCGUCGACUGUACCUUAUGCCGAUACCAGCUACCCGUGAAGCCCUUGGCAGCGGGAAACAUGAGGAUCACCCAUGUCAG [theeternabot_exclusion_MS2_Theo_A_13]
apparent KD of MS2 coat protein (input ligand: arginine 13.2 mM): 19.6 nM
apparent KD of MS2 coat protein [1]: 29.6 nM
apparent KD of MS2 coat protein [2]: 24.7 nM

UUUAUGGAGCUUUUAUUUACGAUUUCUGAUACCAGUGUUUCAUUUCACCCUUGGCAGCAGUGACAUGAGGAUCACCCAUGUAAUA [JR_Nu_SSTheophyA_Sub020]
apparent KD of MS2 coat protein (input ligand: arginine 13.2 mM): 28.1 nM
apparent KD of MS2 coat protein [1]: 35.1 nM
apparent KD of MS2 coat protein [2]: 27.7 nM

ACAUGAGACAUGGAUACCAGCGACAUGAGGAUCACCCAUGUAUGAGGAUCACCCAUGUUAUGCCCUUGGCAGCCACAAACAUGAG [.PLMULLINP]
apparent KD of MS2 coat protein (input ligand: arginine 13.2 mM): 19.8 nM
apparent KD of MS2 coat protein (input ligand: none): 13.9 nM
apparent KD of MS2 coat protein [1]: 30.8 nM
apparent KD of MS2 coat protein [3]: 147 nM
apparent KD of MS2 coat protein [2]: 15.2 nM

CCUAUGCAGUCGGCCGCCACUGAACAUGAGGAUCACCCAUGUAAUUAAAAUUAAGGUCCUAAAAUCAGGACCGGGACUGUAUAGG [Ex Tryptophan B 6]
apparent KD of MS2 coat protein (input ligand: arginine 13.2 mM): 37.6 nM
apparent KD of MS2 coat protein [1]: 43.3 nM
apparent KD of MS2 coat protein [3]: 56.6 nM

UGUAGUACCAGACAUGAGGAUCACCCAUGUCGAGGACCGGUACGGCCGCCACUCGGCAGUUUGCGUCCUCAGGUACUCCGGGUAA [Dianreti]
apparent KD of MS2 coat protein (input ligand: arginine 13.2 mM): 14.4 nM
apparent KD of MS2 coat protein [1]: 18.5 nM
apparent KD of MS2 coat protein [3]: 14.9 nM
